# Results taken from the supplement of paper PMC12042874.
# ± gives the uncertainty stated by the source.
# Experiment: amyloid nucleation score (Sup35N fusion, yeast selection) (log enrichment); library NNK1; higher = more nucleation; inactive = no reads after selection
# Method in brief: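 Peptides of 20 random codons fused to Sup35N were expressed in psi-negative yeast, induced 24 hours with 100 μM copper sulfate, then grown 7 days at 30°C on medium lacking adenine and uracil. Input and output plasmid inserts were Illumina-sequenced. Nucleation score is the DiMSum log enrichment of output over input reads, centred on the mode score of non-aggregating sequences, excluding sequences with under 100 input reads. Random libraries had three technical output replicates.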
row,Substance,amyloid nucleation score
1,YVCPRSWVVRVRHQKTFQSY,-0.374 ± 0.81
2,ELTNR,0.044 ± 0.39
3,YSVPVCGDMLTGWYCNKYKY,inactive
4,HHDMGSFFAVQSTSGTEGMG,-0.099 ± 0.37
5,YLWSSCLGGDSANWLLY,0.714 ± 0.32
6,TVLTTTHFARSVFTLPGKSP,2.89 ± 0.17
7,ARTGCHKVYLAAACSYGRFS,0.188 ± 0.34
8,PCMFYWTVLGRLRTKPPSGV,-0.153 ± 0.44
9,SDNYVKAYVRVRRVMTKGGS,-0.579 ± 0.58
10,DHSCWGAWWVHFGAHDGGWC,1.25 ± 0.79
11,AFFYYIEQDSYTVRSIMI,-0.294 ± 0.42
12,FCELELMVHVVMPFKAVS,0.831 ± 0.77
13,YFWLNTNTLCSYWRMRHWVS,0.524 ± 0.61
14,CVIQVVLYLV,3.83 ± 0.059
15,QTRWWEYHHNLFVLQITFGG,1.04 ± 0.27
16,VHFQYFLMLKLAQFVVVWNK,0.669 ± 0.84
17,LYYDSRASFPCISLEIERYV,-0.083 ± 0.33
18,IWAHVPTSRYEILVVFSG,0.253 ± 0.45
19,VFNFT,-0.816 ± 1.9
20,IMVTDKLSTCAETYIDISW,-0.164 ± 0.75
21,FQNELCKTDIWFRVREWESE,0.196 ± 1.2
22,TTSVV,-0.174 ± 1.2
23,CLLLARVVALVGPPSRTSGV,-0.121 ± 0.4
24,HFHNSCLYIGRVHIGHTLGV,7.826 ± 0.052
25,CHLVSSTSAFA,1.01 ± 0.56

row,Substance,amyloid nucleation score
1,FIIEQANGQGYNYLHI,-0.481 ± 0.48
2,HCSSVQFPRTGVIEVALQKD,-0.17 ± 0.57
3,VTRTYLNRMRSMLSGSMFFM,0.423 ± 0.35
4,MSHWTMGREWITHLFSGHWG,0.945 ± 1.1
5,VPYRFPRMVKYGSMDFTSLE,4.03 ± 0.094
6,LVYRCASRRVSNSFMLCW,-0.542 ± 0.62
7,SWYCGTASLVAKAVADRAGD,0.062 ± 0.5
8,FFELSVYH,-0.174 ± 0.65
9,MSSESLSMGRLDMG,inactive
10,TVLSSFLLKLRLTIVSCFLR,-0.082 ± 0.65
11,NSNCELGKVHFAV,0.501 ± 0.35
12,NDRSFYQITKILHPRDASQN,-1.08 ± 0.55
13,MFFSCGVLTILNWIKLKMAR,-0.839 ± 1.1
14,SSLGNEFIFDSFGNK,-0.772 ± 0.73
15,AFLIIMSGSGNCICLRSLVS,-0.385 ± 0.3
16,KANCCCVSHWCCGYMQ,4.63 ± 0.052
17,NLLWNTVIIFDFVRNLWTWS,0.813 ± 0.72
18,HMNRVSGVMVVLSRGLAGMN,2.67 ± 0.23
19,SIFADGLVVGLGPSLYSVFF,0.175 ± 0.54
20,YVCIGFYSSPVLGIDFLGNK,3.53 ± 0.11
21,LMIRILMVAQNSVLTVFW,-0.324 ± 0.4
22,RLIIME,inactive
23,MSMVNKTSWCYLFCNLRVVY,-1.08 ± 0.86
24,TTIRYNVLRAPMLCIIILMN,-0.607 ± 0.58
25,HREMMWQGKRV,inactive

row,Substance,amyloid nucleation score
1,GGTYPPLDISDFNW,-0.616 ± 0.27
2,LLRVAFLKRYFSTIFCVLLR,-0.716 ± 0.53
3,PMSKV,inactive
4,WQTSSNGLSLKATCLTYKSF,0.016 ± 1.7
5,NFLMKWCEINTCLLVSFSYW,4.5 ± 0.071
6,VITIGMFCRIIEGHYVMYLT,0.089 ± 0.47
7,QWQIDMIPRCLGDMNLIVLQ,inactive
8,VVYIHFAII,0.439 ± 0.69
9,MKDVILRTWYLRQGEGWGAS,0.026 ± 0.4
10,CTVRFIYRKLN,-0.325 ± 0.33
11,VDRLNFLSLSYENFSGSSGE,4.7 ± 0.064
12,GSRSQCAPSQFLAAGTHNKF,-1.17 ± 0.84
13,RACYTCVPVSGSRMSVRNLW,3.19 ± 0.13
14,YLPIKPFIYANILWGFTVSC,-0.025 ± 1
15,YVILFVIVVGSA,0.654 ± 0.84
16,GCSVWDCWGLRVRSVGRSDR,0.449 ± 0.34
17,DWFWWKIVGWVRNSNMRSYS,0.946 ± 0.6
18,TTCVELYVWRGWRGAGGTGV,-1.41 ± 2.4
19,SGQTYGNFFGEAFWYECA,0.19 ± 1.4
20,YGPGWTRWLENLSLYSMYEP,-0.102 ± 1.5
21,GIKRHIEDCLV,1.04 ± 0.46
22,MVRWLNTSRKFT,1.06 ± 0.73
23,FLVCLFINVVTPRTYHLWVY,-0.174 ± 0.49
24,CGYMLVYDAHMHRSLLCAC,-0.285 ± 0.26
25,DRTLDDPGVHHASKAE,inactive

row,Substance,amyloid nucleation score
1,WIRDDVVMGGAECCLVLNQ,1.24 ± 0.58
2,FYVANVACSCAFMLPITNVR,-0.461 ± 0.73
3,HVNSRRVLSHFVFDCARIGT,0.592 ± 0.69
4,YGRQG,0.123 ± 0.49
5,FGTFCMGRPYRYYGCNGGFR,0.674 ± 0.35
6,ELLYGWGIP,-0.723 ± 0.76
7,ADARVQGLSRLWGSGFNRLP,0.53 ± 0.51
8,YRMGLGS,-0.455 ± 0.96
9,LGSMSPVGLTKYLGDGEEVV,-0.036 ± 0.55
10,RGGTMGYILDNKCQNFVGTW,inactive
11,LSMSCENFHLTQSSEGCSRV,0.19 ± 0.51
12,FWIWVCSDLLLD,0.423 ± 0.43
13,VIVQKSLS,-0.086 ± 0.61
14,FNSRGSVSNL,0.821 ± 1.1
15,FDGVRARDALFSGCL,-0.705 ± 0.59
16,SVVNDFVYRL,-0.588 ± 0.86
17,LCSIN,-0.876 ± 0.99
18,DSSMWFTASLYSYVLLSLNL,0.73 ± 0.36
19,MVLFKELIMVFTQARAS,0.156 ± 0.28
20,RKRRVSSLPEMGHSGSEYIG,0.412 ± 0.67
21,PIHPRTLMG,0.117 ± 0.59
22,KNGRWAWFTSRAHCFGYNFT,-1.14 ± 0.82
23,FGMWYSVRISTSLVYVMGVL,-0.23 ± 0.28
24,PVCFAFQFRATPNMQVHQPS,-0.108 ± 0.75
25,MEHYLACIWITHVCF,0.117 ± 1.1

row,Substance,amyloid nucleation score
1,SILVRVSVR,0.444 ± 1.2
2,LMNCVAYAIVEVTCVSCMES,4.68 ± 0.082
3,TSRALRREIARLKAYGSMMV,inactive
4,IRSLITMVGTGLGPLAR,0.876 ± 0.4
5,MFGGYRSC,0.159 ± 1.2
6,TKWAVDY,0.347 ± 0.28
7,IGACLRQSLVISYDVIFMLL,inactive
8,YVIKKWTTCVLDFWHHFSFR,0.583 ± 0.48
9,TMCCTLDARRLLLSMADFYC,5.42 ± 0.072
10,DIRNLLTWSISDVVTVRKIG,-0.643 ± 0.33
11,NSGNHDSCKFFGLLVRQMVG,0.529 ± 0.46
12,YPVRFHTYVVISTFGEIGFG,0.822 ± 0.43
13,DICVWDYMNRGGQLL,-0.047 ± 0.86
14,LRCKMYSMWKTSYFTVMLGG,-0.261 ± 0.44
15,SVLCELRV,-0.182 ± 0.36
16,GGKVGREQTIW,-0.123 ± 0.89
17,CVTDIRAWFKVGLCNSDVLQ,3.89 ± 0.096
18,SLGLFKIIRKPYHCSAPSQA,0.551 ± 0.47
19,ERRDVRIYKSCGLGHVFYEG,4.91 ± 0.056
20,GFRRGPVSSSV,0.206 ± 0.67
21,AMLLLTCGL,0.481 ± 0.74
22,NCECSFWKREGSWGTLVSGM,0.201 ± 0.51
23,SRNLLPSDTSHQVMYPVSTK,0.568 ± 0.28
24,FGKSYRRFFARTKFGKAGGP,-1.29 ± 1.8
25,LYCRNRCRACCKRFTFK,inactive

row,Substance,amyloid nucleation score
1,GDFKTRLFSCLDSRLILGRG,-0.485 ± 1.5
2,MYCGS,-0.279 ± 0.27
3,LFTCVQFIMGVDDRWKRARS,2.19 ± 0.26
4,SDFNLDSSGMKRVKSRV,0.817 ± 0.69
5,KRNRVAIILWICNNYYEWNN,-0.747 ± 0.39
6,CFPDICWHSVK,0.125 ± 0.79
7,WKKGRMMIKSQSGGLSQVWG,1.05 ± 0.59
8,VVLKNHRHSVLSWWLTS,-0.622 ± 0.56
9,CDGNHSRSLRLIDLGPGF,-0.558 ± 1.1
10,SVSYVELLGAFIKGLGIIYF,-0.999 ± 0.63
11,WPSKAQAVFTNTSTLNVSRF,inactive
12,NNRCPCYSILWNRWRNKVA,inactive
13,FLTSECSTSSLHS,0.56 ± 0.85
14,YKSCCVGITPM,-0.551 ± 0.49
15,CFSSNCMEFLSNVLYKNINP,0.626 ± 0.78
16,TRGCLRPATSKSGMRPW,0.056 ± 0.69
17,CDWGN,1.14 ± 0.93
18,HVLMLNW,3.05 ± 0.084
19,LWLTPTQCMTHNFPLLTPRR,-0.354 ± 0.47
20,SFNVKVAHGLIRFSPDICYQ,4.47 ± 0.13
21,HTFHVL,inactive
22,AEHYPGIVVCLSLCDS,-1.77 ± 2.4
23,IYKLLGRVKSMMFLWYTVHS,-0.527 ± 0.52
24,VSKLLCLRMHMLKLW,-0.48 ± 0.48
25,RINLVSVYDRSNDKVSIPS,0.454 ± 0.55

row,Substance,amyloid nucleation score
1,SCILFY,1.75 ± 0.14
2,YNSVKVNRFH,1.3 ± 0.74
3,FFFHSKDVYYGDFVHLSFAG,-0.352 ± 1.2
4,YSCGGSDSWGTTNSNLGFRH,-0.751 ± 0.66
5,WNCKLTMADGGSAKVAPLSS,0.38 ± 0.32
6,TSSVYLWVSQCYGMNSLLNL,-0.118 ± 0.75
7,PWPVSFYFMVNIVWCGRVIL,1.06 ± 0.26
8,FKYTHIETVIQVLYFRTWSY,-0.485 ± 0.33
9,MCNVGTVRAYSLIQGGIRQC,0.373 ± 0.34
10,LVFFHISR,4.94 ± 0.1
11,SLNKRWCLRTQFGVAMVRTP,0.416 ± 0.99
12,SVDVTRIIMIVVCRFKMWEL,0.736 ± 0.32
13,STRHPTKNR,0.823 ± 0.21
14,TGGTNGHKASCEVRFTVTER,1.08 ± 0.41
15,YAPWGGKNSRYAGSVM,0.701 ± 0.33
16,HVRSWI,1.76 ± 0.76
17,LVFVTWLSMHVNTTGVFSLS,0.242 ± 0.41
18,MRIRAKSALSVSLECDLQFL,0.655 ± 0.3
19,EVCWNSCMVADSVSVISNPA,-0.231 ± 0.27
20,RFLSSALRARRYSRPVPLVM,1.13 ± 0.76
21,VIVWVWSCVM,6.247 ± 0.055
22,GRAFG,-0.557 ± 2.1
